{"source": "paper PMC4931249", "biological_target": "WT BG505 SOSIP.664 gp140 trimer (HIV-1 clade-A BG505)", "assay": "negative-stain EM"}
{"substance": "WT BG505 SOSIP.664 gp140 trimer (complex)", "values": [{"measurement": "stoichiometry N", "value": 3}]}
